The source of these data is the Immune Epitope Database (IEDB).

In general, IC50 refers to the point on the concentration scale where inhibition reaches its midpoint.

What all share (test): IEDB peptide-MHC binding, purified MHC/competitive/radioactivity; ≥ and ≤ were set here for values at or beyond the usual limits of such assays
The target in experiment [1] is HLA-A*02:02.
Experiment [2] concerns the target HLA-A*68:02.
The target of experiment [3] is HLA-A*02:01.
For experiment [4], the target named is HLA-A*02:03.
Experiment [5] addresses HLA-A*02:06.
[6] abbreviates: source organism: Vaccinia virus WR.
[7] abbreviates: source organism: Hepacivirus hominis.

Take AISAVYFKA: the IC50 in experiment [1] (setting [6]) is 0.0037 µM; in experiment [2] (setting [6]), 0.077 µM; in experiment [3] (setting [6]) it was 0.041 µM; in experiment [4] (setting [6]), 0.525 µM; in experiment [5] (setting [6]), 0.149 µM.

In the case of NVSRVVECL, the IC50 is 0.133 µM in experiment [1] (setting [6]); 0.028 µM in experiment [2] (setting [6]); 4.11 µM in experiment [3] (setting [6]); 0.938 µM in experiment [4] (setting [6]); 1.03 µM in experiment [5] (setting [6]).

As for MAGVEVRYI, the concentration for half-maximal inhibition (IC50) in experiment [1] (setting [6]) stood at 0.293 µM; in experiment [2] (setting [6]) it was 0.583 µM; in experiment [3] (setting [6]) it was 2.31 µM; in experiment [4] (setting [6]), 0.201 µM; in experiment [5] (setting [6]), 2.05 µM.

With LLALLSCISV, the IC50 in experiment [1] (setting [7]) was found to be 0.00077 µM; in experiment [2] (setting [7]) it was 2.45 µM; in experiment [3] (setting [7]), 0.0024 µM; in experiment [4] (setting [7]), 0.0013 µM; in experiment [5] (setting [7]), 0.016 µM.

Consider WVMDTLNGIM, for which the 50% inhibitory concentration (IC50) came to 1.33 µM in experiment [1] (setting [6]); 0.101 µM in experiment [2] (setting [6]); 0.175 µM in experiment [3] (setting [6]); 0.194 µM in experiment [4] (setting [6]); 0.129 µM in experiment [5] (setting [6]).

For LMANLAPHLL, the half-inhibitory concentration (IC50) in experiment [1] (source organism: SARS-CoV1) was 0.00023 µM; in experiment [2] (source organism: SARS-CoV1), 1.17 µM; in experiment [3] (source organism: SARS-CoV1), 0.03 µM; in experiment [4] (source organism: SARS-CoV1) it was 0.0015 µM; in experiment [5] (source organism: SARS-CoV1) it was 0.115 µM.

As for VMYASALVLL, the IC50 in experiment [1] (source organism: SARS-CoV1) was 0.00025 µM; in experiment [2] (source organism: SARS-CoV1), 0.756 µM; in experiment [3] (source organism: SARS-CoV1) it was 0.0057 µM; in experiment [4] (source organism: SARS-CoV1), 0.004 µM; in experiment [5] (source organism: SARS-CoV1) it was 0.041 µM.

For the sequence FLPQIGGEA, the IC50 in experiment [1] (setting [6]) was 0.021 µM; in experiment [2] (setting [6]), 0.149 µM; in experiment [3] (setting [6]) it was 1.36 µM; in experiment [4] (setting [6]), 0.121 µM; in experiment [5] (setting [6]) it was 0.096 µM.

As for LTNAISSRV, the concentration for half-maximal inhibition (IC50) in experiment [1] (setting [6]) worked out at 0.146 µM; in experiment [2] (setting [6]) it was 0.016 µM; in experiment [3] (setting [6]) it was 0.916 µM; in experiment [4] (setting [6]), 0.019 µM; in experiment [5] (setting [6]) it was 0.145 µM.

As for SIDHCSSFI, the IC50 amounted to 0.631 µM in experiment [1] (setting [6]); 0.027 µM in experiment [2] (setting [6]); 0.246 µM in experiment [3] (setting [6]); 0.013 µM in experiment [4] (setting [6]); 0.199 µM in experiment [5] (setting [6]).

On to SLVSKHWEL, for which the 50% inhibitory concentration (IC50) turned out to be 0.0012 µM in experiment [1] (setting [6]); 0.378 µM in experiment [2] (setting [6]); 0.0027 µM in experiment [3] (setting [6]); 0.036 µM in experiment [4] (setting [6]); 0.035 µM in experiment [5] (setting [6]).

ILPDKIDGL: the IC50 was 0.001 µM in experiment [1] (setting [6]); 4 µM in experiment [2] (setting [6]); 0.062 µM in experiment [3] (setting [6]); 0.0035 µM in experiment [4] (setting [6]); 0.043 µM in experiment [5] (setting [6]).

In the case of EVNDTHYTV, the IC50 in experiment [1] (setting [6]) came to 0.133 µM; in experiment [2] (setting [6]), 0.0005 µM; in experiment [3] (setting [6]) it was 3.06 µM; in experiment [4] (setting [6]) it was 0.115 µM; in experiment [5] (setting [6]), 4.77 µM.

FICNLLLLFV: the concentration for half-maximal inhibition (IC50) in experiment [1] (source organism: SARS-CoV1) was found to be 0.0025 µM; in experiment [2] (source organism: SARS-CoV1) it was 1.07 µM; in experiment [3] (source organism: SARS-CoV1), 0.0021 µM; in experiment [4] (source organism: SARS-CoV1), 0.015 µM; in experiment [5] (source organism: SARS-CoV1), 0.004 µM.

As for WLLWPVTLA, the half-inhibitory concentration (IC50) in experiment [1] (source organism: SARS-CoV1) is 0.012 µM; in experiment [2] (source organism: SARS-CoV1), 0.151 µM; in experiment [3] (source organism: SARS-CoV1), 0.0068 µM; in experiment [4] (source organism: SARS-CoV1) it was 0.0012 µM; in experiment [5] (source organism: SARS-CoV1), 0.017 µM.

MMVILPDKI: the IC50 amounted to 0.069 µM in experiment [1] (setting [6]); 1.63 µM in experiment [2] (setting [6]); 0.161 µM in experiment [3] (setting [6]); 0.016 µM in experiment [4] (setting [6]); 0.909 µM in experiment [5] (setting [6]).

Turning to DLNIFMTLV, the IC50 is 1.91 µM in experiment [1] (setting [6]); 0.192 µM in experiment [2] (setting [6]); 1.12 µM in experiment [3] (setting [6]); 0.556 µM in experiment [4] (setting [6]); 2.19 µM in experiment [5] (setting [6]).

On to ILATLNTLI, for which the IC50 in experiment [1] (setting [6]) stood at 0.00041 µM; in experiment [2] (setting [6]), 2.31 µM; in experiment [3] (setting [6]), 0.015 µM; in experiment [4] (setting [6]), 0.00023 µM; in experiment [5] (setting [6]) it was 0.04 µM.
